# Measurements taken from the supplement of paper PMC10567573.
# ± gives the standard deviation.
# Experiment: protein stability index of a GFP-peptide fusion (GPS, HEK-293T) (PSI 1-6); higher = more stable
# Conditions: c terminus: a fixed tail appended
# 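Note: 24-mer peptide tiles fused after GFP, lentivirally expressed, FACS-sorted into six equal bins by GFP/DsRed ratio, decoded by Illumina sequencing, PSI is the read-weighted mean bin number.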
Sequence,protein stability index (treatment: DMSO),"protein stability index (treatment: MLN4924 1 uM, 8 h)"
AAAEVGGGVGGSSRARSASSPRGM [ANKRD17],4.82 ± 0.34,5 ± 0.24
AAASAKDIYYNNMEEVCGGEKPYL [ATL3],4.21 ± 0.25,4.01 ± 0.069
AAGELESMGFSARYNFTPDPDFKD [NETO1],4.71 ± 0.2,4.61 ± 0.18
AAHRLARRLYHLEGFQRCDVARQL [PSD2],2.21 ± 0.43,2.46 ± 0.46
AANKAVKCAEVIIPLLSSVNVSDR [ANKRD44],2.9 ± 0.27,2.98 ± 0.23
AANKGEEKKDDENIPMETEETHLE [SMARCE1],5.64 ± 0.33,5.34 ± 0.42
AAPGALGSLHAGGARLVAACSAWL [AUH],2.65 ± 0.047,2.39 ± 0.34
AAQNCRKRKLDTILNLERDVEDLQ [NFE2L1],4.09 ± 0.44,4.62 ± 0.27
AASPELSALEEAFRRFAVHGDARA [TPPP],3.73 ± 0.12,3.74 ± 0.26
AASVRMRGEAEAFAIGARARAEAE [FLOT1],5.32 ± 0.17,4.96 ± 0.23
ACGGHVELAALLIERGASLEEVND [ANKRD17],3.91 ± 0.29,3.73 ± 0.22
ADPLRVSSRDKLTEMAASSQGNFE [FUNDC2],4.96 ± 0.2,5.18 ± 0.26
ADSVITVGRGEVVTVRVPTHEEGS [ACBD3],4.88 ± 0.2,4.88 ± 0.16
ADTRRLNSKPQDLTDAYGPPSNFL [SNX12],3.97 ± 0.22,3.93 ± 0.068
AEHEITELTATFTKFDRDGNRILD [PKD2L1],4.76 ± 0.24,4.95 ± 0.19
AETQPQNPPAQPAPNAWQVIKGVL [CLPTM1],3.55 ± 0.15,3.78 ± 0.25
AEVNAVDNEGNSALHIIVQYNRPI [FEM1B],2.48 ± 0.25,2.48 ± 0.23
AEVRHEIQDGTIHLYIYSIHSIPK [KMT2E],2.1 ± 0.76,1.51 ± 0.14
AFERQQVENRVVEEAKGLLDKVKD [ZBED1],4.97 ± 0.38,5.61 ± 0.19
AFHGAPSHLPTRSPSFPEAPDSGR [TBX6],4.32 ± 0.26,4.37 ± 0.38
AGGAGGGVTEEQEGFADGFVKALD [JUNB],5.32 ± 0.17,5.35 ± 0.085
AGISPLQQMVASGTGAVVTSLFMT [SLC25A39],2.02 ± 0.57,2.17 ± 0.5

Sequence,protein stability index (treatment: DMSO),"protein stability index (treatment: MLN4924 1 uM, 8 h)"
AHLPKAQLSGYAVEATRNQSQLQR [FBF1],4.21 ± 0.044,4.08 ± 0.2
AHSNAISNCCFTFSGHFLCTSSWD [WDR88],2.48 ± 0.49,2.3 ± 0.57
AIHYCASTSEESWTDSEVDSSCSG [SPDEF],5.28 ± 0.2,5.18 ± 0.37
AIPIEIKSIDDTSNFDDFPESDIL [STK38L],4.67 ± 0.17,4.84 ± 0.11
AKGLAESLELPKAIQDQLPRLQQL [FANCE],3.95 ± 0.12,4.15 ± 0.3
AKKEDKVPVKKQKTRTVFSSTQLC [NANOGP8],4.2 ± 0.1,4.19 ± 0.12
AKKGRRNQSVEPKKEEPEPETEAV [ZMYND11],5.53 ± 0.28,5.66 ± 0.21
ALALQARGCSVKIWTAHYDPGHCF [ALG2],2.25 ± 0.41,2.23 ± 0.26
ALCELLEKETQIIASIGRHRYIAY [IQUB],2.25 ± 0.3,2.16 ± 0.24
ALEGSALANGRALSAGSPPVPPGW [DLX1],3.59 ± 0.15,3.86 ± 0.17
ALLDQIRQGIQLNKTPGAPESSAL [WAS],3.3 ± 0.16,3.15 ± 0.53
ALLIVDSATALYRTDYSGRGELSA [RAD51],2.17 ± 0.33,2.27 ± 0.42
ALSSPRSRKNATQPPNAEEESGSS [INTS3],5.24 ± 0.31,5.38 ± 0.24
AMELRHQGGEYLPKPEPPQLVLAY [FEM1A],2.32 ± 0.33,2.38 ± 0.28
AMVTADSKYCYGPQGSRSPYIPPH [FKBP8],3.27 ± 0.42,3.13 ± 0.26
AMVWALDLDDFAGFSCNQGRYPLI [CHIT1],2.5 ± 0.56,2.65 ± 0.63
APDAHFTVDKQNISLWPREPPPKS [CD207],4.73 ± 0.24,4.78 ± 0.27
APDLVLNAEMVQQTTYLEDRPMFM [LOXL2],3.25 ± 0.18,3.43 ± 0.17
APEFIKVRENLRRIATLTSEEREL [FAM107A],4.48 ± 0.31,4.62 ± 0.16
APKAGLEEAPAVTAGLKIFEPPAP [TNFSF13B],4.6 ± 0.26,4.68 ± 0.086
APVILVGCQLDLRYADLEAVNRAR [RHOBTB2],2.57 ± 0.17,2.45 ± 0.21
APYAAAAAAQSYPGYLPYSPEPPS [IRX6],4.06 ± 0.14,4.2 ± 0.15

Sequence,protein stability index (treatment: DMSO),"protein stability index (treatment: MLN4924 1 uM, 8 h)"
AQVLMLGQILELPWKEETFLVLQS [FANCE],2.47 ± 0.33,2.65 ± 0.67
ARGIAGEKFDIVKKWGINTYKCTK [ARFIP2],3.3 ± 0.35,3.27 ± 0.077
ARHLREYQELLNVKMALDIEIATY [PRPH],2.34 ± 0.4,2.4 ± 0.37
ARLLQEGGGGVAAVVVLDQGSRHW [DUSP5],2.64 ± 0.97,2.44 ± 0.75
ARQETKEMARKVIEHCSNFKEENM [ZER1],4.74 ± 0.23,4.57 ± 0.45
ASESEHIPKPQSTGWFGGGFTSYL [MIA2],2.4 ± 0.37,2.69 ± 0.34
ASSASLEPMWSGSTMRRMALRPTA [EMID1],3.43 ± 0.23,3.64 ± 0.43
ATTASPAKVDSSGVIDLFGDAFGS [SNAP91],4.06 ± 0.2,4.42 ± 0.15
ATYLRCQLLLIKALQEKLWNVAAP [INTS4],3.16 ± 0.3,2.9 ± 0.39
AVKLADFGLAIEVEGEQQAWFGFA [CAMK2A],2.51 ± 0.48,2.26 ± 0.5
AVVASSVNSYYSSPAQQVPKNPAL [TOR1AIP2],3.51 ± 0.16,3.46 ± 0.18
AWAAHTRLFQVVGKTDDTLALLNL [TMEM175],2.25 ± 0.13,2.03 ± 0.042
AYMDRRDHPLPEVAHVKHLSASQK [COX4I1],4.34 ± 0.32,4.6 ± 0.32
CAFVGALGGAAFLGTAIFIEADRR [SPNS1],2.8 ± 0.78,2.36 ± 0.67
CDALRTLAEARRLFPGRVSVDLML [RSAD1],2.05 ± 0.33,2.03 ± 0.37
CEKTFRDKNTLKDHMRKKQHRKIN [ZNF277],3.77 ± 0.21,3.71 ± 0.31
CFQSCLCCCCYQSKSLMTSVPMNG [EDNRA],2.31 ± 0.53,2.41 ± 0.18
CGPPSLGAVLALVAIFIMSLNKRH [MFSD9],3.3 ± 0.89,3.41 ± 1.1
CGTPLRKSNFRVQLFEDPTVDKEV [MNAT1],3.84 ± 0.09,3.75 ± 0.16
CLMLLMGTVHCQIVSTQITRPSGN [PHTF1],3.12 ± 0.47,2.84 ± 0.47
CLPPEPSPDDPESVKIIFKLPNDS [FAF2],4.76 ± 0.17,4.82 ± 0.13
